Experimental data: PMC11804915, “Single-stranded DNA binding to the transcription factor PafBC triggers the mycobacterial DNA damage response”

Key:
[1] = molecular target: T1, PafBC WT (Mycobacterium smegmatis, UniProt A4ZHT0;A0QZ41 1-331;1-318); test: EMSA; ssDNA EMSA: 22.5 mM Hepes-KOH pH 7.8, 135 mM NaCl, 20 mM KCl, 5 mM MgCl2, 1 mM DTT, 37 C 15 min, 10 nM DNA, 0-16 uM PafBC; RNAP EMSA: 20 mM Hepes-NaOH pH 8, 100 mM K-acetate, 36 mM NaCl, 10 mM MgCl2, 2 mM DTT, 37 C 30 min; conditions: protein: recombinant, tags: C-terminal Strep on PafC, copies: 1;1, label: internal fluorescein-dT
T1 sequence 1: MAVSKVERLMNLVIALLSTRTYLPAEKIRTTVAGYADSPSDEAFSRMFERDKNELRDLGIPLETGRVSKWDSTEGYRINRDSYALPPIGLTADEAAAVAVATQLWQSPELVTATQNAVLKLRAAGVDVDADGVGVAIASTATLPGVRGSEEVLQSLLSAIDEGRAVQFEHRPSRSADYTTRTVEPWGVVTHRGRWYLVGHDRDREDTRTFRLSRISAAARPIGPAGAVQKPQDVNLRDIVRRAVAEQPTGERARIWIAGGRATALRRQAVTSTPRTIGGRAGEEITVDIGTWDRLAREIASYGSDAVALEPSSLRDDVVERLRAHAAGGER
T1 sequence 2: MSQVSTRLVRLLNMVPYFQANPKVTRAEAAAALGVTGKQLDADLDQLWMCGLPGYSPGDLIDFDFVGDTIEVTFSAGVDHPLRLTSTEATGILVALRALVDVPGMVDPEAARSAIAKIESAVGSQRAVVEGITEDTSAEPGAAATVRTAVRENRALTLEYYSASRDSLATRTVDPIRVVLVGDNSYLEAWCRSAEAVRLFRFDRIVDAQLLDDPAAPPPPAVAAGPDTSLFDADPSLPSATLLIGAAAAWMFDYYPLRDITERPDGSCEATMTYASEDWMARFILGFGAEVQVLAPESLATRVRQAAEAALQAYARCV

[2] = molecular target: RNAP-sigmaA holoenzyme with RbpA (Mycobacterium smegmatis SMR5 …, UniProt A0QSL8;P60281;A0QS66;A0QWT1;A0QW02;A0QZ11 1-350;1-1169;1-1317;1-107;1-466;1-114); test: EMSA; nonspecific binding; ssDNA EMSA: 22.5 mM Hepes-KOH pH 7.8, 135 mM NaCl, 20 mM KCl, 5 mM MgCl2, 1 mM DTT, 37 C 15 min, 10 nM DNA, 0-16 uM PafBC; RNAP EMSA: 20 mM Hepes-NaOH pH 8, 100 mM K-acetate, 36 mM NaCl, 10 mM MgCl2, 2 mM DTT, 37 C 30 min; conditions: protein: native, tags: TwinStrep on RpoC, His6 removed from SigA, chain copies: 2;1;1;1;1;1, blunt
[3] = molecular target: T1, PafBC WT; test: analytical gel filtration; ssDNA:PafBC stoichiometry ~1:1; ssDNA EMSA: 22.5 mM Hepes-KOH pH 7.8, 135 mM NaCl, 20 mM KCl, 5 mM MgCl2, 1 mM DTT, 37 C 15 min, 10 nM DNA, 0-16 uM PafBC; RNAP EMSA: 20 mM Hepes-NaOH pH 8, 100 mM K-acetate, 36 mM NaCl, 10 mM MgCl2, 2 mM DTT, 37 C 30 min; conditions: protein: recombinant; tags: C-terminal Strep on PafC; copies: 1;1; single strand
[4] = molecular target: RNAP-sigmaA holoenzyme with RbpA;CarD;PafBC, PafC WYL variant (Mycobacterium smegmatis SMR5 …, UniProt A0QSL8;P60281;A0QS66;A0QWT1;A0QW02;A0QZ11;A0R561;A4ZHT0;A0QZ41 …, ||R201A;R204A); test: EMSA; 5 uM dT12 ssDNA; efficiency similar to WT; ssDNA EMSA: 22.5 mM Hepes-KOH pH 7.8, 135 mM NaCl, 20 mM KCl, 5 mM MgCl2, 1 mM DTT, 37 C 15 min, 10 nM DNA, 0-16 uM PafBC; RNAP EMSA: 20 mM Hepes-NaOH pH 8, 100 mM K-acetate, 36 mM NaCl, 10 mM MgCl2, 2 mM DTT, 37 C 30 min; conditions: protein: native;recombinant;recombinant; tags: TwinStrep on RpoC; His6 removed from SigA;His6-thioredoxin removed by TEV;C-terminal Strep on PafC; chain copies: 2;1;1;1;1;1;1;1;1; label: 5' FAM on strand 1; blunt, internal non-complementary bubble 13 nt
[5] = molecular target: RNAP-sigmaA holoenzyme with RbpA;PafBC WT (Mycobacterium smegmatis SMR5 …, UniProt A0QSL8;P60281;A0QS66;A0QWT1;A0QW02;A0QZ11;A4ZHT0;A0QZ41 …, |); test: EMSA; 5 uM dT12 ssDNA; PafBC shifts RNAP-DNA band; ssDNA EMSA: 22.5 mM Hepes-KOH pH 7.8, 135 mM NaCl, 20 mM KCl, 5 mM MgCl2, 1 mM DTT, 37 C 15 min, 10 nM DNA, 0-16 uM PafBC; RNAP EMSA: 20 mM Hepes-NaOH pH 8, 100 mM K-acetate, 36 mM NaCl, 10 mM MgCl2, 2 mM DTT, 37 C 30 min; conditions: protein: native;recombinant; tags: TwinStrep on RpoC; His6 removed from SigA;C-terminal Strep on PafC; chain copies: 2;1;1;1;1;1;1;1; label: 5' FAM on strand 1; blunt, internal non-complementary bubble 13 nt
[6] = molecular target: RNAP-sigmaA holoenzyme with RbpA;CarD;PafBC, PafB Y196A (Mycobacterium smegmatis SMR5 …, UniProt A0QSL8;P60281;A0QS66;A0QWT1;A0QW02;A0QZ11;A0R561;A4ZHT0;A0QZ41 …, ||Y196A); test: EMSA; 5 uM dT12 ssDNA; retains association with RNAP; ssDNA EMSA: 22.5 mM Hepes-KOH pH 7.8, 135 mM NaCl, 20 mM KCl, 5 mM MgCl2, 1 mM DTT, 37 C 15 min, 10 nM DNA, 0-16 uM PafBC; RNAP EMSA: 20 mM Hepes-NaOH pH 8, 100 mM K-acetate, 36 mM NaCl, 10 mM MgCl2, 2 mM DTT, 37 C 30 min; conditions: protein: native;recombinant;recombinant; tags: TwinStrep on RpoC; His6 removed from SigA;His6-thioredoxin removed by TEV;C-terminal Strep on PafC; chain copies: 2;1;1;1;1;1;1;1;1; label: 5' FAM on strand 1; blunt, internal non-complementary bubble 13 nt
[7] = molecular target: RNAP-sigmaA holoenzyme with RbpA;CarD;PafBC, PafB WYL variant (Mycobacterium smegmatis SMR5 …, UniProt A0QSL8;P60281;A0QS66;A0QWT1;A0QW02;A0QZ11;A0R561;A4ZHT0;A0QZ41 …, ||R214A;PafB:R211A); test: EMSA; 5 uM dT12 ssDNA; PafBC variant does not join RNAP-DNA; ssDNA EMSA: 22.5 mM Hepes-KOH pH 7.8, 135 mM NaCl, 20 mM KCl, 5 mM MgCl2, 1 mM DTT, 37 C 15 min, 10 nM DNA, 0-16 uM PafBC; RNAP EMSA: 20 mM Hepes-NaOH pH 8, 100 mM K-acetate, 36 mM NaCl, 10 mM MgCl2, 2 mM DTT, 37 C 30 min; conditions: protein: native;recombinant;recombinant; tags: TwinStrep on RpoC; His6 removed from SigA;His6-thioredoxin removed by TEV;C-terminal Strep on PafC; chain copies: 2;1;1;1;1;1;1;1;1; label: 5' FAM on strand 1; blunt, internal non-complementary bubble 13 nt
[8] = molecular target: RNAP-sigmaA holoenzyme with RbpA;CarD;PafBC, PafB R181A/R204A/R208A (Mycobacterium smegmatis SMR5 …, UniProt A0QSL8;P60281;A0QS66;A0QWT1;A0QW02;A0QZ11;A0R561;A4ZHT0;A0QZ41 …, ||R204A;R208A;PafB:R181A); test: as above; conditions: protein: native;recombinant;recombinant; tags: TwinStrep on RpoC; His6 removed from SigA;His6-thioredoxin removed by TEV;C-terminal Strep on PafC; chain copies: 2;1;1;1;1;1;1;1;1; label: 5' FAM on strand 1; blunt, internal non-complementary bubble 13 nt
[9] = molecular target: RNAP-sigmaA holoenzyme with RbpA;CarD;PafBC WT (Mycobacterium smegmatis SMR5 …, UniProt A0QSL8;P60281;A0QS66;A0QWT1;A0QW02;A0QZ11;A0R561;A4ZHT0;A0QZ41 …, ||); test: EMSA; ssDNA …; no effect of CarD on complex formation; ssDNA EMSA: 22.5 mM Hepes-KOH pH 7.8, 135 mM NaCl, 20 mM KCl, 5 mM MgCl2, 1 mM DTT, 37 C 15 min, 10 nM DNA, 0-16 uM PafBC; RNAP EMSA: 20 mM Hepes-NaOH pH 8, 100 mM K-acetate, 36 mM NaCl, 10 mM MgCl2, 2 mM DTT, 37 C 30 min; conditions: protein: native;recombinant;recombinant; tags: TwinStrep on RpoC; His6 removed from SigA;His6-thioredoxin removed by TEV;C-terminal Strep on PafC; chain copies: 2;1;1;1;1;1;1;1;1; label: 5' FAM on strand 1; blunt, internal non-complementary bubble 13 nt
[10] = molecular target: T2, PafBC WT, cryo-EM sample (Mycobacterium smegmatis, UniProt A4ZHT0;A0QZ41 1-331;1-318); test: cryo-EM; within RNAP-sigmaA promoter complex; formaldehyde-fixed; second entry 9FNE; ssDNA EMSA: 22.5 mM Hepes-KOH pH 7.8, 135 mM NaCl, 20 mM KCl, 5 mM MgCl2, 1 mM DTT, 37 C 15 min, 10 nM DNA, 0-16 uM PafBC; RNAP EMSA: 20 mM Hepes-NaOH pH 8, 100 mM K-acetate, 36 mM NaCl, 10 mM MgCl2, 2 mM DTT, 37 C 30 min; conditions: protein: recombinant; copies: 1;1; single strand
T2 sequence 1: T1 sequence 1
T2 sequence 2: T1 sequence 2

## GGGCCCGGGCCCGGTATATCCGGGCCCGGGCCC (structured_DNA) [hairpin DNA control]
[1]; hairpin, 14 bp stem, 5 nt loop
  binding result: no binding

B1: nonspecific DNA with bubble (dsDNA)
DNA 1: GTCGTGAAGGACACCGCCGAAGCGCCCAAGACGGCCGACGAGAAAGCCGCCGAGGCCACCGGGCCCAGCAAGGTCAA
DNA 2: TTGACCTTGCTGGGCGTCAGCATGCGAACGGCTTTCTCGTCGGCCGTCTTGGGCGCTTCGGCGGTGTCCTTCACGAC
[2]; label: 5' FAM on strand 1, internal non-complementary bubble
  binding result: binds

B2: housekeeping promoter with -10 bubble (dsDNA)
DNA 1: CCCCGTTTTGGGGCAGATGCGATTCTGAAATACTGCTTTGTCTGGCTTGTCAAGTCGCTCTGGACCGGGTTGTTTTC
DNA 2: GAAAACAACCCGGTCCAGAGCGACTTGACAAGCCAGACAAAGCAGTATTAAGCTGGCAGGGTTGCCCCAAAACGGGG
[2]; label: 5' FAM on strand 2, internal non-complementary bubble
  binding result: binds

## TTTTTTTTTTTTTTTTTTTT (ssDNA) [dT20 ssDNA unlabeled]
[3]
  binding result: binds

B3: PafBC-specific promoter with -10 bubble (dsDNA)
DNA 1: TCGTCTACTGTGGTGAAGAGTTCGACCGGACTTGTCGGTGGTCTGCTCTAACGTCACGGCCAACCGATCGGAACACC
DNA 2: GGTGTTCCGATCGGTACCGGACATGTAAAGAGCAGACCACCGACAAGTCCGGTCGAACTCTTCACCACAGTAGACGA
[2]; label: 5' FAM on strand 1, internal non-complementary bubble 13 nt
  binding result: binds
[4]
  binding result: binds
[5]
  binding result: binds
[6]
  binding result: binds
[7]
  binding result: no binding
[8]
  binding result: no binding
[9]
  binding result: binds

## TTGTTGTTGTT (ssDNA) [cryo-EM ssDNA ligand]
[10]
  binding result: binds

B4: blocked end ssDNA (dT12 between two hairpins) (structured_DNA)
DNA: GGGCCCGGGCCCGGTATATCCGGGCCCGGGCCCTTTTTTTTTTTTCCCGGGCCCGGGCCTATATGGCCCGGGCCCGGG
[1]; two hairpins, 14 bp stems, 5 nt loops
  binding result: binds
